Laboratory results as given in patent publication US20070190024A1 (INSERM INSTITUT NATIONAL DE LA SANTE ET DE LA RECH, published 2007).
Substitutions are numbered along the chain they refer to. In names and notes the source's numbering stands. One block for each binder: values may come before it.

Experiments:
[1] = target: T1, murine high affinity IL-11 receptor complex (IL-11Rα with gp130) on 7TD1 cells (Class 2 sites) (mouse, UniProt Q64385 24-432; Q00560 23-917); experiment: cell-based or functional assay
T1 sequence (looked up) 1: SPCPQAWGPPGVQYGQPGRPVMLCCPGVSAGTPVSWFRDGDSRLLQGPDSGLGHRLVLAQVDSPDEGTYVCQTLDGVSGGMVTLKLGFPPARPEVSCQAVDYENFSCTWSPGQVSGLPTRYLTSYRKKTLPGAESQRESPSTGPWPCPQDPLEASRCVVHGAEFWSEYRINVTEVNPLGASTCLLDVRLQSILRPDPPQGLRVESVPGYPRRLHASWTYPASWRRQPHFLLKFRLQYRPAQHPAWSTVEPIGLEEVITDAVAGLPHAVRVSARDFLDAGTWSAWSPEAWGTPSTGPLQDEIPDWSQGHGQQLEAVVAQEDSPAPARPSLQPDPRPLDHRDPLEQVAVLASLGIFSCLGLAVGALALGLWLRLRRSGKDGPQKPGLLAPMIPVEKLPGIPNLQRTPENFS
T1 sequence (looked up) 2: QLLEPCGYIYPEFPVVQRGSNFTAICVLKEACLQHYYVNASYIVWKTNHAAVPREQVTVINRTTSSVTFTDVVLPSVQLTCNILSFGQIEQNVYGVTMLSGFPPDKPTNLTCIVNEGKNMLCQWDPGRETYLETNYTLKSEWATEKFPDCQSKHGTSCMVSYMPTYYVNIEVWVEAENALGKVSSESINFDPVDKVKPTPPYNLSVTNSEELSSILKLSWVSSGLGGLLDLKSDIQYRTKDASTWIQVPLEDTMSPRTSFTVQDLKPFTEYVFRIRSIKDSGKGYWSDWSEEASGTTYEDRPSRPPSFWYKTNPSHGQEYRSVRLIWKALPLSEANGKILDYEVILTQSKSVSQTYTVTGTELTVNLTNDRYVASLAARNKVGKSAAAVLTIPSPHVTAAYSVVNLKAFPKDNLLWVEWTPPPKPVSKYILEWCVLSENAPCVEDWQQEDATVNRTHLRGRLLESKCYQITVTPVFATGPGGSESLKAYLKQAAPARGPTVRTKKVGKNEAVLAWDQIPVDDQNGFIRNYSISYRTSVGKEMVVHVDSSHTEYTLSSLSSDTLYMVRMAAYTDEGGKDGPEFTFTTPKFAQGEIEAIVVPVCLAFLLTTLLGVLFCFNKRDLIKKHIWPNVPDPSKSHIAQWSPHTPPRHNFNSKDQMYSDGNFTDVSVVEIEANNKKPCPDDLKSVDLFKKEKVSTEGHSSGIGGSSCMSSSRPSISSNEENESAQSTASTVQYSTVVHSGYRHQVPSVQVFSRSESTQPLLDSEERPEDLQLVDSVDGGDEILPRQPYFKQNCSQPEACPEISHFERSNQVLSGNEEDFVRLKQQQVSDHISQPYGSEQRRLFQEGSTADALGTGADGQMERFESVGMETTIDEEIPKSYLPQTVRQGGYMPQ

[2] = target: T2, fusion protein of human IL-11R and IL-2 (IL-11R-IL-2) (human, UniProt Q14626 23-370; P60568 21-153, limits assumed); experiment: SPR (BiaCore 2000), IL-11R-IL-2 amine-coupled to a CM5 chip
T2 construct: Amine-coupled to a CM5 chip at about 500 RU; also called human IL-11Rα-IL-2 fusion protein; recombinant human IL-11R-IL-2
Protocol: (§1) These experiments were performed with a BiaCore 2000 optical biosensor (BiaCore, Uppsala, Sweden). A fusion protein of human IL-11R and IL-2 (IL-11R-IL-2) [Blanc et al. (2000). Monoclonal antibodies against the human interleukin-11 receptor alpha-chain (IL-11Ralpha) and their use in studies of human mononuclear cells. J. Immunol. Methods 241, 43-59, the content of which is herein incorporated by reference] was coupled through primary amino groups to a carboxymethyl dextran flow cell (CM5) at a low immobilisation level (about 500 RU per flow cell) compatible with kinetic binding studies. Subsequent binding of parental FPΔIL-11 or mutein was carried out in Hepes-buffered saline (pH 7.4) at a flow rate of 10 μl/minute at room temperature.
(§2) In order to find out if mutagenesis and associated conformational change of H/V-D/A have an effect on its interaction with IL-11Rα, the association and dissociation kinetic constants (kₒₙ, koff) describing parent IL-11 and H/V-D/A mutein binding to human IL-11Rα were determined by surface plasmon resonance biosensor analysis using dextran-immobilized purified human IL-11Rα-IL-2 [Blanc et al. (2000), cited supra] fusion protein as matrix.

[3] = target: T3, human IL-11 receptor (human IL-11Rα and human gp130) on B13Rα1 cells (human, UniProt Q14626 23-422; P40189 23-918); experiment: Scatchard analysis, 32P-labelled ligand on B13Rα1 cells; unlabelled competitor H/V-D/A
T3 construct: whole, on cells; also called Ba/F3 cells stably transfected with human gp130 and hIL-11Rα; Ba/F3 cells co-transfected with human IL-11Rα and human gp130
T3 sequence (looked up) 1: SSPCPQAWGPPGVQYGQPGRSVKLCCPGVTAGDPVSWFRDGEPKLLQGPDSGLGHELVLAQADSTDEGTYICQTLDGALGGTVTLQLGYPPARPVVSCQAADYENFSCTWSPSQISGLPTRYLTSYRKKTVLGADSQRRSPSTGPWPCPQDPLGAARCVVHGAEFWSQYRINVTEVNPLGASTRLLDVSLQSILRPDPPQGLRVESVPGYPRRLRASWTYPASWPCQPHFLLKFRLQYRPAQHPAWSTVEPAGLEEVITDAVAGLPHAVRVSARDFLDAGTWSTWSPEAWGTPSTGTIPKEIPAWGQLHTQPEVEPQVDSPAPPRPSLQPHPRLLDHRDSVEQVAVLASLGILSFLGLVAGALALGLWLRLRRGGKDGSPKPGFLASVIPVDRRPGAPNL
T3 sequence (looked up) 2: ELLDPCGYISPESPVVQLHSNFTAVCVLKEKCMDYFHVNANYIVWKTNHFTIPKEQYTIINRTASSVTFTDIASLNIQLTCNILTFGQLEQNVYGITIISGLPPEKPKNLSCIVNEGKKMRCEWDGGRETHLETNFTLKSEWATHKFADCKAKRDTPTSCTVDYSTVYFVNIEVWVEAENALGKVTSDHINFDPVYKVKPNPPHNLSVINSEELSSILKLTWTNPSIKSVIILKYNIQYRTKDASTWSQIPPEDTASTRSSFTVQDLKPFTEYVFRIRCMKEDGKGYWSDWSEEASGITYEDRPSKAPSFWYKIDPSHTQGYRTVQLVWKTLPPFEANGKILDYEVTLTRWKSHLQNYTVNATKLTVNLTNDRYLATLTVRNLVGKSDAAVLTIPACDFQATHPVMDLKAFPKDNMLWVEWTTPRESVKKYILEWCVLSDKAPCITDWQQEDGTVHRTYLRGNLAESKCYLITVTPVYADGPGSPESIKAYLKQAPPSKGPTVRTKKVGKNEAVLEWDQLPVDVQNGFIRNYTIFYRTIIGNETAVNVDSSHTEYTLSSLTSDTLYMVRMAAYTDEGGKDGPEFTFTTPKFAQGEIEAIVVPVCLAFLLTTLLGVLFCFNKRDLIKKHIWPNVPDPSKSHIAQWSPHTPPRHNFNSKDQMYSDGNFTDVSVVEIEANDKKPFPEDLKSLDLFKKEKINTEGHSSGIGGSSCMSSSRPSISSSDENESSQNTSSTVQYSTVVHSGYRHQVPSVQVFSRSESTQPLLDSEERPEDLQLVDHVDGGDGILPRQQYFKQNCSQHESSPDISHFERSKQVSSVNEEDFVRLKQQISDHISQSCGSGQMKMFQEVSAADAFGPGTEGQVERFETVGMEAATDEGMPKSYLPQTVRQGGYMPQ

[4] = target: T3, human IL-11 receptor (human IL-11Rα and …); experiment: Scatchard analysis, 32P-labelled ligand on B13Rα1 cells; unlabelled competitor FPΔIL-11
[5] = target: T4, murine IL-11Rα on 7TD1 cells (Class 1, low affinity sites; isolated IL-11Rα chains) (mouse, UniProt Q64385 24-432); experiment: Scatchard analysis, 32P-labelled ligand on 7TD1 cells, Class 1 sites; unlabelled competitor FPΔIL-11
T4 construct: whole, on cells; also called 7TD1 Class 1 sites
T4 sequence (looked up): T1 sequence (looked up) 1
Protocol: (§3) Binding of ³²P-H/V-D/A on 7TD1 cells was carried out as described for the parental ³²P-FPΔIL-11 on B13Rα1 cells by Wang et al [Wang et al. (2002), cited supra, and incorporated by reference]. 7TD1 cells ([…]) were pre-incubated in culture medium lacking growth factor for 2 h and were washed 3 times with phosphate-buffered saline, pH 7.4 (PBS). For binding studies, radiolabelled H/V-D/A was added to cells at the indicated concentration in PBS containing 0.5% bovine serum albumin. The mixture was incubated at 4° C. for the appropriate time and bound radiolabelled H/V-D/A was separated from the free radioactivity by centrifugation at 3000 g for 1 min through a 0.2 ml layer of a mixture of 40% dioctyl phthalate and 60% dibutyl phthalate (Janssen Chimica, Beerse, Belgium). After quick freezing, the tip of each tube containing the cell pellet was cut-off and radioactivity was counted in a Beckman β-counter. Non-specific binding was determined by incubating cells with radiolabelled H/V-D/A in the presence of a 200-fold molar excess of unlabelled H/V-D/A. […]

[6] = target: T1, murine high affinity IL-11 receptor …; experiment: Scatchard analysis, 32P-labelled ligand on 7TD1 cells, Class 2 sites; unlabelled competitor FPΔIL-11
Protocol: as §3

[7] = target: T2, fusion protein of human IL-11R and IL-2 …; experiment: SPR, immobilized human IL-11Rα-IL-2
Protocol: as §1, §2

[8] = target: T4, murine IL-11Rα on 7TD1 cells (Class 1, …); experiment: Scatchard analysis, 32P-labelled ligand on 7TD1 cells, low affinity sites
Protocol: as §3

[9] = target: T4, murine IL-11Rα on 7TD1 cells (Class 1, …); experiment: Scatchard analysis, 32P-labelled ligand on 7TD1 cells, Class 1 sites; unlabelled competitor H/V-D/A
Protocol: as §3

[10] = target: T1, murine high affinity IL-11 receptor …; experiment: Scatchard analysis, 32P-labelled ligand on 7TD1 cells, Class 2 sites; unlabelled competitor H/V-D/A
Protocol: as §3

Kd [2]: 165 nM
koff [2]: 0.000975 s⁻¹
kon [2]: 5900 M⁻¹ s⁻¹
Kd [3]: 0.4 nM
Kd [4]: 0.44 nM
B1: FPΔIL-11 (parental, non-mutated recombinant human IL-11 with Flag tag and phosphorylation site, deleted of the first 31 N-terminal amino acids) (ligand)
chain: MDYKDDDDKEGRRASVASPDPRAELDSTVLLTRSLLADTRQLAAQLRDKFPADGDHNLDSLPTLAMSAGALGALQLPGVLTRLRADLLSYLRHVQWLRRAGGSSLKTLEPELGTLQARLDRLLRRLQLLMSRLALPQPPPDPPAPPLAPPSSAWGGIRAAHAILGGLHLTLDWAVRGLLLLKTRL
notes: Produced in E. coli BL21(DE3); monomer by gel filtration; in SPR it was unlabelled; also called parental FPΔIL-11; parent IL-11
concentration required to induce half-maximal proliferation (EC50) of 7TD1 cells [1]: 15 ng/mL
Kd [5]: 7.2 nM
Kd [6]: 0.65 nM

fold higher koff than parental FPΔIL-11 [7]: 14 fold
fold higher kon than parental FPΔIL-11 [7]: 35 fold
fold lower Kd than FPΔIL-11 [7]: 3 fold
Kd [3]: 0.71 nM
Kd [4]: 0.72 nM
B2: H/V-D/A mutein (FPΔIL-11 with H182V and D186A) (ligand)
chain: B1 chain with H168V, D172A
notes: in SPR it was unlabelled; also called H182V+D186A; mutant FPΔIL-11
concentration required to induce half-maximal proliferation (EC50) of 7TD1 cells [1]: 0.03 ng/mL
fold lower EC50 of 7TD1 proliferation than wild-type IL-11 [1]: 400 fold
fold higher affinity than FPΔIL-11 [8]: ~3 fold
Kd [9]: 2.7 nM
Kd [10]: 0.6 nM

B3: commercial recombinant human IL-11 (rhIL-11, R&D) (ligand)
chain: PGPPPGPPRVSPDPRAELDSTVLLTRSLLADTRQLAAQLRDKFPADGDHNLDSLPTLAMSAGALGALQLPGVLTRLRADLLSYLRHVQWLRRAGGSSLKTLEPELGTLQARLDRLLRRLQLLMSRLALPQPPPDPPAPPLAPPSSAWGGIRAAHAILGGLHLTLDWAVRGLLLLKTRL
concentration required to induce half-maximal proliferation (EC50) of 7TD1 cells [1]: 15 ng/mL
